Experimental data: publication PMC11551315 (Proceedings of the National Academy of Sciences of the …, 2024)
Read-outs that look alike come from different tables or passages of the source.

Assays:
[1] = target: T1, Cdc15-eGFP (S. cerevisiae, UniProt P27636 1-974); assay: AlphaScreen or HTRF
T1 sequence (looked up): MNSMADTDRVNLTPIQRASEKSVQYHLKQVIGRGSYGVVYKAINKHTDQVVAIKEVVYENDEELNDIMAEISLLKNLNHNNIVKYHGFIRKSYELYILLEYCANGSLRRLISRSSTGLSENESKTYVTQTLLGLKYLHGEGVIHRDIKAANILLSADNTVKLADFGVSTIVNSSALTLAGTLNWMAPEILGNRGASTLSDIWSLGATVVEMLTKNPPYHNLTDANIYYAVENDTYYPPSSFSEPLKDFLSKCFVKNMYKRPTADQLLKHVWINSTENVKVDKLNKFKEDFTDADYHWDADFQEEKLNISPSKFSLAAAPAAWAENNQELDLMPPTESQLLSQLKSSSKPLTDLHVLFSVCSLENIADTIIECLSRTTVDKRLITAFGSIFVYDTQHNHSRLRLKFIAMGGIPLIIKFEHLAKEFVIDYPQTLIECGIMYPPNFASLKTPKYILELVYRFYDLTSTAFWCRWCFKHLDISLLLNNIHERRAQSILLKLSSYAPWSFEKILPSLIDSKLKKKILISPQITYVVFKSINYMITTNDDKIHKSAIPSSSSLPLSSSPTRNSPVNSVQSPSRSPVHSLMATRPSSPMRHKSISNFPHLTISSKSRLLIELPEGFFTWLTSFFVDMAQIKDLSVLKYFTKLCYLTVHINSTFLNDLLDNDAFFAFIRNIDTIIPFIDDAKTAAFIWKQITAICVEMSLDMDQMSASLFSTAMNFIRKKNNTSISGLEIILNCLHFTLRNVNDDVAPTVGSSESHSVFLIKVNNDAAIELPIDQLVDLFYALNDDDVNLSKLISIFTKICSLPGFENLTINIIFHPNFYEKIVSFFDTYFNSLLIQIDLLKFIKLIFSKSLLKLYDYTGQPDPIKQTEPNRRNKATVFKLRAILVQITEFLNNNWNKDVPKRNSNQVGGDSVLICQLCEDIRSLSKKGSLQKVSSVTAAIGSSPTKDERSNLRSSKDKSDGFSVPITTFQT

[2] = target: T1, Cdc15-eGFP; assay: AlphaScreen or HTRF; remark: listed apart in the source

B1: Recombinant Tem1 (unlabeled) (natural protein, S. cerevisiae, UniProt P38987 1-245, looked up)
chain: MATPSTGANNSIPAVRNQVEVQVGLVGDAQVGKTSLMVKYVQNIYDKEYTQTLGVNFLKRKVSIRSTDIIFSIMDLGGQREFINMLPIATVGSSVIIFLFDLTRPETLSSIKEWYRQAYGLNDSAIPILVGTKYDLLIDLDPEYQEQISRTSMKYAQVMNAPLIFCSTAKSINIQKIFKIALAKIFNLTLTIPEINEIGDPLLIYKHLGGQQHRHHNKSQDRKSHNIRKPSSSPSSKAPSPGVNT
For B1, the Kd [1] was 16 ± 3 nM and the Kd [2] was 3.9 ± 0.8 nM.
